Measured values: the supplement of paper PMC10567573

B1: KRT18 (parent)
chain: RAQYDELARKNREELDKYWSQQIE
B2: ADD1 (parent)
chain: LRHSFQKQQREKTRWLNSGRGDEA

Variants of: B1
Test: protein stability index of a GFP-peptide fusion (GPS, HEK-293T) (PSI 1-6); higher = more stable
Settings: c terminus: a fixed tail appended
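Also: lentivirally expressed fusions sorted by FACS into six bins by GFP to DsRed ratio, PSI derived from sequencing read proportions per bin multiplied by bin number.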

Row | Variant | protein stability index
1 | Y4A | 3.84
2 | Y4D | 3.23
3 | Y4F | 3.52
4 | Y4G | 3.04
5 | Y4L | 2.25
6 | Y4N | 3.68
7 | Y4T | 3.91
8 | Y4R | 4
9 | Y4P | 3.67
10 | Y4I | 3.47
11 | Y4S | 3.74
12 | Y4E | 3.57
13 | Y4V | 4
14 | Y4W | 2.48
15 | Y4H | 3.45
16 | Y4K | 3.46
17 | Y4C | 3.44
18 | Y4Q | 3.93
19 | Y4M | 3.18
20 | E6A | 3.3
21 | D5F | 2.83
22 | D5E | 2.86
23 | D5V | 3.57
24 | D5A | 2.74

Row | Variant | protein stability index
25 | D5I | 2.98
26 | D5M | 2.75
27 | D5Y | 3.28
28 | D5Q | 3.38
29 | D5P | 3.73
30 | D5R | 2.79
31 | D5S | 2.79
32 | D5L | 2.33
33 | D5T | 3.57
34 | D5C | 3.33
35 | D5H | 3.29
36 | D5G | 3.09
37 | D5N | 3.17
38 | D5K | 2.84
39 | Q3P | 2.94
40 | Q3T | 2.89
41 | Q3M | 2.52
42 | Q3N | 4.45
43 | Q3C | 2.51
44 | Q3D | 3.54
45 | Q3Y | 2.56
46 | Q3S | 2.21
47 | Q3F | 2.38
48 | Q3W | 2.07

Row | Variant | protein stability index
49 | Q3V | 2.31
50 | Q3K | 3.19
51 | Q3I | 2.44
52 | Q3R | 3.27
53 | Q3H | 2.54
54 | Q3L | 2.55
55 | Q3E | 3.19
56 | Q3A | 2.68
57 | Q3G | 3.21
58 | R1M | 2.97
59 | R1I | 2.79
60 | R1P | 3.08
61 | R1K | 2.29
62 | R1Y | 2.29
63 | R1H | 2.97
64 | R1C | 2.19
65 | R1F | 2.47
66 | R1D | 2.87
67 | R1W | 2.12
68 | R1Q | 3.07
69 | R1S | 3.06
70 | R1N | 2.99
71 | R1E | 3.06
72 | R1L | 2.79

Row | Variant | protein stability index
73 | R1A | 3.38
74 | R1G | 3.12
75 | R1V | 3.71
76 | R1T | 3.02
77 | A2S | 3.25
78 | A2W | 3.13
79 | A2D | 3.18
80 | A2Q | 3.07
81 | A2E | 3.34
82 | A2M | 2.65
83 | A2P | 3.13
84 | A2K | 2.65
85 | A2V | 3.11
86 | A2I | 2.5
87 | A2C | 2.48
88 | A2F | 2.73
89 | A2R | 3.24
90 | A2L | 2.51
91 | A2H | 3.23
92 | A2T | 2.52
93 | A2N | 2.52
94 | A2Y | 2.72
95 | A2G | 2.33

Variants of: B2
Test: as above
Settings: c terminus: a fixed tail appended

Row | Variant | protein stability index
96 | E23A | 3.98
97 | E23I | 3.24
98 | E23T | 3.48
99 | E23F | 2.28
100 | E23D | 3.6
101 | E23M | 3.25
102 | E23W | 2.77
103 | E23G | 3.64
104 | E23R | 3.49
105 | E23P | 3.75
106 | E23Y | 2.66
107 | E23H | 3.23
108 | E23N | 3.73
109 | E23L | 2.38
110 | E23Q | 3.2
111 | E23K | 2.73
112 | E23C | 3.54
113 | E23S | 3.83
114 | E23V | 3.47
115 | G21F | 3.39
116 | G21H | 3.2
117 | G21Q | 3.49
118 | G21K | 3.84
119 | G21I | 3.42

Row | Variant | protein stability index
120 | G21S | 3.63
121 | G21W | 3.03
122 | G21M | 3.4
123 | G21R | 3.47
124 | G21Y | 3.01
125 | G21L | 3.64
126 | G21V | 3.59
127 | G21P | 3.71
128 | G21T | 3.33
129 | G21N | 3.43
130 | D22E | 3.89
131 | D22I | 2.68
132 | D22N | 3.69
133 | D22K | 3.4
134 | D22P | 2.83
135 | D22Y | 2.78
136 | D22A | 3.57
137 | D22G | 3.62
138 | D22Q | 3.74
139 | D22W | 1.99
140 | D22F | 3.64
141 | D22M | 3.47
142 | D22R | 3.73
143 | D22L | 2.71

Row | Variant | protein stability index
144 | D22C | 3.18
145 | D22T | 3.29
146 | D22S | 3.9
147 | D22V | 3.25
148 | D22H | 3.94
149 | A24K | 4.12
150 | A24H | 3.31
151 | A24R | 3.93
152 | A24G | 3.96
153 | A24L | 3.08
154 | A24V | 3.56
155 | A24W | 1.65
156 | A24C | 3.51
157 | A24N | 4.03
158 | A24S | 3.9
159 | A24Q | 4.03
160 | A24D | 3.95
161 | A24T | 3.48
162 | A24M | 3.56
163 | A24P | 3.58
164 | A24E | 4.52
165 | A24F | 2.69
166 | A24I | 3.15
167 | A24Y | 3.18
